Consider 1 substance from article PMC7704052.

In this test the target is Flag-tagged MxA wildtype (human myxovirus resistance protein A) (human) (UniProt P20591).

In turn, “SiAr126 nucleoprotein (NP), wildtype, from expression plasmid (natural protein)” had a SiAr126 polymerase reconstitution (minigenome firefly luciferase) in 293T cells: inhibition by co-expressed MxA compared with the inactive MxA(T103A) of 90%.
